Measurements reported in patent US20220370545A1, “INTEGRIN RECEPTOR ALPHA V BETA 3 AND ITS LIGAND INVOLVED IN CHRONIC ITCH” (North Carolina State University, priority 2019, published 2022).

B1: periostin: fasciclin extracellular matrix protein, endogenous ligand of integrin αvβ3; mouse recombinant used (protein)
chain: NSYYDKVLAHSRIRGRDQGPNVCALQQILGTKKKYFSSCKNWYQGAICGKKTTVLYECCPGYMRMEGMKGCPAVMPIDHVYGTLGIVGATTTQHYSDVSKLREEIEGKGSYTYFAPSNEAWENLDSDIRRGLENNVNVELLNALHSHMVNKRMLTKDLKHGMVIPSMYNNLGLFINHYPNGVVTVNCARVIHGNQIATNGVVHVIDRVLTQIGTSIQDFLEAEDDLSSFRAAAITSDLLESLGRDGHFTLFAPTNEAFEKLPRGVLERIMGDKVASEALMKYHILNTLQCSEAITGGAVFETMEGNTIEIGCEGDSISINGIKMVNKKDIVTKNGVIHLIDEVLIPDSAKQVIELAGKQQTTFTDLVAQLGLASSLKPDGEYTLLAPVNNAFSDDTLSMDQRLLKLILQNHILKVKVGLSDLYNGQILETIGGKQLRVFVYRTAICIENSCMVRGSKQGRNGAIHIFREIIQPAEKSLHDKLRQDKRFSIFLSLLEAADLKDLLTQPGDWTLFAPTNDAFKGMTSEERELLIGDKNALQNIILYHLTPGVYIGKGFEPGVTNILKTTQGSKIYLKGVNETLLVNELKSKESDIMTTNGVIHVVDKLLYPADIPVGNDQLLELLNKLIKYIQIKFVRGSTFKEIPMTVYRPAMTKIQIEGDPDFRLIKEGETVTEVIHGEPVIKKYTKIIDGVPVEITEKQTREERIITGPEIKYTRISTGGGETGETLQKFLQKEVSKVTKFIEGGDGHLFEDEEIKRLLQGDTPAKKIPANKRVQGPRRRSREGRSQ

Columns and labels:
[1] = test system: non-histamine dependent (CQ) itch in mice; assay: Chloroquine (CQ)-induced itch in mice; format: in vivo, mouse; conditions: i.v. cilengitide 100 nM 10 minutes prior to CQ 100 μg/10 μl
Protocol: (§1) All behavioral experiments were conducted during the light cycle at ambient temperature (23° C.). Behavioral assessment of scratching behavior was conducted as described previously (Mishra et al., 2011). Briefly, mice were injected intradermal into the nape of the neck with periostin (R&D), histamine, and chloroquine (all Millipore-Sigma) as previously described (Shimada and LaMotte, 2008). Compounds were diluted in PBS and the same was used as a vehicle. […] Additionally, cilengitide and periostin were combined together (mix) and injected i.d. into the dorsal neck of mouse. Scratching behavior was recorded for 30 minutes and data was presented in bouts per 30 minutes for mice. […] For eye wipes assay, periostin and capsaicin were dropped on mouse cornea and counted wipes for 1-minute. […] For dog's study, periostin (25 μg/25 μl) was injected in the dorsal neck (s.c.) and behavior was recorded and quantified for 30 minutes as “duration of pruritus manifestation” (DPM), as described earlier (Paps et al., 2016). […] When different raters separately scored a single tape, the ratings indicated high interrater reliability (coefficient of correlation, r>0.95). This method of itch readout in NHP has been used and accepted (Ko and Naughton, 2000). The behavior was recorded for 30 minutes duration and number of scratches quantified. […]

SST-positive DRG neurons = assay: Whole-cell patch clamp recordings in SST-positive mouse DRG neurons; format: cell-based
Protocol: DRGs were removed aseptically from SOM-reporter mice (6-8 weeks) and incubated with collagenase (1.25 mg/ml)/dispase-II (2.4 units/ml) (both from Roche, Basel, Switzerland) at 37° C. for 90 min, then digested with 0.25% trypsin for 8 min at 37° C., followed by 0.25% trypsin inhibitor. Cells were mechanically dissociated with a flame polished Pasteur pipette in the presence of 0.05% DNAse I (Sigma, St. Louis, Miss., United States of America). DRG cells were plated on glass cover slips and grown in a neurobasal defined medium (with 2% B27 supplement, Invitrogen, Carlsbad, Calif., United States of America) with 5 μM AraC and 5% carbon dioxide at 36.5° C. DRG neurons were grown for 24 hours before use. Whole-cell patch clamp recordings were performed at room temperature using an Axopatch-700B amplifier (Axon Instruments, Foster City, Calif., United States of America) with a Digidata 1440B (Axon Instruments, Foster City, Calif., United States of America). Only SOM-positive neurons (<[…]) were recorded. […] Pipette resistance was 4-6 MΩ for whole-cell recording of periostin—induced inward currents, as previously recorded (Han et al., Neuron, 2018, PMID: 30033153)

C57BL6J mice = assay: Mouse cheek itch/pain model; format: in vivo; conditions: periostin 5 μg/20 μl into the cheek
Protocol: as §1

Row | Molecule | CQ-induced itch (scratching bouts per 30 minutes) [1] | inward current by periostin (SST-positive DRG neurons; periostin 1 μg/ml, pilot data) | average inward current by periostin (SST-positive DRG neurons; periostin 10 μg/ml, 8 neurons from 4 mice) [pA] | scratching behavior, cheek injection (C57BL6J mice) | wiping (pain behavior), cheek injection (C57BL6J mice; compared to capsaicin)
1 | CC(C)[C@H]1C(=O)N[C@@H](CCCN=C(N)N)C(=O)NCC(=O)N[C@@H](CC(=O)O)C(=O)N[C@H](Cc2ccccc2)C(=O)N1C [cilengitide, cyclo RGDf-n(Me)V] | inhibits | – | – | – | –
2 | B1 | – | weak inward currents | 58.4 | robust scratching behavior similar to that of histamine | did not induce wiping
